According to patent US12404345B2, “Humanized antibodies against iRHOM2” (SCIRHOM GMBH, priority 2021, dated 2025):
Substitutions are numbered along the chain they refer to.

T1: rhesus monkey iRhom1 (Macaca mulatta, UniProt F6ZPC8)
T1 construct: T7-tagged version of rhesus monkey iRhom1 full length wild type; expressed in transfected cells; host or cells: immortalized iRhom1/2-/- DKO mouse embryonic fibroblasts, pMSCV retroviral infection
T1 sequence (F6ZPC8 1-833): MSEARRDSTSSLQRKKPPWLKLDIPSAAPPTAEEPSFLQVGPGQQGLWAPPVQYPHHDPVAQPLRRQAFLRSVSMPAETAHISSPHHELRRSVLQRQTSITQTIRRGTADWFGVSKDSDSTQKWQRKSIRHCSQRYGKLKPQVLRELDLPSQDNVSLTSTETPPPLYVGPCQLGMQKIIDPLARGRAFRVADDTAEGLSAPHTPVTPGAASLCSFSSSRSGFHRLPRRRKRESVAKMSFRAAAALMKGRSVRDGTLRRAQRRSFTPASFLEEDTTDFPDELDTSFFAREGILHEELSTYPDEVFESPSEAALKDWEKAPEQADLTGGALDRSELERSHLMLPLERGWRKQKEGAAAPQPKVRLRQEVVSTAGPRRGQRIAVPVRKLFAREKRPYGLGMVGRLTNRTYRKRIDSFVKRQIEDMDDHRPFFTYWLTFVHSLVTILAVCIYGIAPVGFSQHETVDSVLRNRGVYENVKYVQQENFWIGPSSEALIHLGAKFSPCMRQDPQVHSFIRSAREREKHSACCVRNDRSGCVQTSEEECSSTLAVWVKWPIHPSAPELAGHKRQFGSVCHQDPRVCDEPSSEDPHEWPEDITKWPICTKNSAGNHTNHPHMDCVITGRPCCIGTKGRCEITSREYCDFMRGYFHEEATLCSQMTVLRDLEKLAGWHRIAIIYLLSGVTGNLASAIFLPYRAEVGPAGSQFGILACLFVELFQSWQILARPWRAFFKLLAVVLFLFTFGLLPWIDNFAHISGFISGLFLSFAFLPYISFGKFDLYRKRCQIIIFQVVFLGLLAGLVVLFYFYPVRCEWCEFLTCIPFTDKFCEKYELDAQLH

B1: 23-B-04: humanized antibody binding human iRhom2; HCVD SEQ ID NO 25, LCVD SEQ ID NO 29 (antibody, V domains shown)
VH: QVTLRESGPALVKPTQTLTLTCTFSGFSLSTFGMGVGWIRQPPGKALEWLAHIWWDDEKYYNSALKSRLTISKDTSKNQVVLTITNMDPVDTATYYCARISNYGSNYWYFNVWGQGTLVTVSS
VL: AIQLTQSPSSLSASVGDRVTITCRASSSVSYMYWYQQKPGKAPKVLIYDTSNLASGVPSRFSGSGSGTDYTLTISSLQPEDFATYYCQQWNAYPLTFGQGTKLEIK
modifications: antibody sequences
B2: 42-B-02: humanized antibody binding human iRhom2; HCVD SEQ ID NO 33, LCVD SEQ ID NO 37 (antibody, V domains shown)
VH: B1 VH with M34R, S101Q, N111D
VL: B1 VL with S28R, V29I, Y33F, A92S
modifications: antibody sequences
B3: 42-B-04: humanized antibody binding human iRhom2; HCVD SEQ ID NO 41, LCVD SEQ ID NO 45 (antibody, V domains shown)
VH: B1 VH with M34R, S101Q, N111D
VL: B1 VL with S28R, V29I, Y33F
modifications: antibody sequences
B4: 16-B-03: humanized antibody binding human iRhom2; HCVD SEQ ID NO 1, LCVD SEQ ID NO 5 (antibody, V domains shown)
VH: QVTLRESGPALVKPTQTLTLTCTFSGFSLSTFALGVGWIRQPPGKALEWLAHIWWDDDKYYNPALKSRLTISKDTSKNQVVLTITNMDPVDTATYYCARITTYYYGMDYWGQGTLVTVSS
VL: EIVMTQSPDFQSVTPKEKVTITCRASQSIGNHLHWYQQKPDASPKLLIKYASQSISGVPSRFSGSGSGTDFTLTINSLEAEDAATYFCQQSYQWPLTFGQGTKLEIK
modifications: antibody sequences
B5: 16-B-05: humanized antibody binding human iRhom2; HCVD SEQ ID NO 9, LCVD SEQ ID NO 13 (antibody, V domains shown)
VH: B4 VH with D57E
VL: B4 VL with Q93N
modifications: antibody sequences
B6: 16-B-07: humanized antibody binding human iRhom2; HCVD SEQ ID NO 17, LCVD SEQ ID NO 21 (antibody, V domains shown)
VH: B4 VH with D57E
VL: B4 VL
modifications: antibody sequences

target: T1, rhesus monkey iRhom1; test: FACS binding on MEF-DKO-Rhesus-iR1-FL-WT-T7 cells; conditions: antibody at 3 μg/ml
From the text: (§1) Next, iRhom1/2−/− DKO MEFs stably expressing a tagged form of rhesus monkey, cynomolgus monkey, dog or rabbit iRhom2 were generated in order to determine cross-reactivity of the antibodies of the invention with the respective orthologue of iRhom2. iRhom1/2−/− DKO MEFs stably expressing a tagged form of rhesus monkey, cynomolgus monkey, dog or rabbit iRhom1 were generated to confirm specificity for iRhom2 versus iRhom1 of these species.
(§2) In brief, on day 1, Phoenix-ECO cells (American Type Culture Collection, USA) were seeded on 6-well tissue culture plates (Greiner, Germany) in standard growth medium at 8×10^5 cells per well and kept overnight at 37° C., 5% CO2. On day 2, the medium was replaced by fresh medium supplemented with chloroquine (Sigma-Aldrich, USA) at a final concentration of 25 μM. Applying the calcium phosphate method, cells were transfected with 2 μg/ml of pMSCV (Clontech, USA) empty vector, pMSCV-rhesus-iR2-FL-WT-T7 encoding rhesus monkey iRhom2 full length wild type C-terminally tagged with 3 consecutive copies of the T7 epitope, pMSCV-cyno-iR2-FL-WT-T7 encoding cynomolgus monkey iRhom2 full length wild type C-terminally tagged with 3 consecutive copies of the T7 epitope, pMSCV-dog-iR2-FL-WT-T7 encoding dog iRhom2 full length wild type C-terminally tagged with 3 consecutive copies of the T7 epitope or pMSCV-rabbit-iR2-FL-WT-T7 encoding rabbit iRhom2 full length wild type C-terminally tagged with 3 consecutive copies of the T7 epitope, respectively, and were kept at 37° C., 5% CO2. After 7 hours, the transfections were stopped by replacing cell supernatants with standard growth medium lacking chloroquine, and cells were incubated at 37° C., 5% CO2 to allow virus production overnight. In parallel, immortalized iRhom1/2−/− DKO MEFs as target cells for retroviral infection were seeded on 6-well tissue culture plates (Greiner, Germany) in standard growth medium at 1×10^5 cells per well and were also kept overnight at 37° C., 5% CO2. On day 3, the supernatants of Phoenix-ECO cells releasing pMSCV, pMSCV-rhesus-iR2-FL-WT-T7, pMSCV-cyno-iR2-FL-WT-T7, pMSCV-dog-iR2-FL-WT-T7 or pMSCV-rabbit-iR2-FL-WT-T7 ecotrophic virus, respectively were collected, filtered with 0.45 μm CA filters, and supplemented with 4 μg/ml of polybrene (Sigma-Aldrich, USA). Upon removal of medium from the immortalized iRhom1/2−/− DKO MEFs, the virus containing supernatants were added to the target cells for 4 hours at 37° C., 5% CO2 for first infection. Simultaneously, Phoenix-ECO cells were re-incubated with fresh medium, which, after another 4 hours, was filtered and used for the second infection of the respective target cell populations, again in the presence of 4 μg/ml of polybrene. Likewise, a third, but overnight infection cycle was performed. On day 4, virus containing cell supernatants were replaced by fresh standard growth medium. From day 5 onwards, cells were grown in the presence of 2 mg/ml of geneticin (G418, Thermo Fisher Scientific, USA) for the selection of immortalized MEF-DKO-EV control cells stably infected with pMSCV empty vector, pMSCV-rhesus-iR2-FL-WT-T7 cells stably expressing rhesus monkey iRhom2 full length wild type C-terminally tagged with 3 consecutive copies of the T7 epitope, pMSCV-cyno-iR2-FL-WT-T7 cells stably expressing cynomolgus monkey iRhom2 full length wild type C-terminally tagged with 3 consecutive copies of the T7 epitope, pMSCV-dog-iR2-FL-WT-T7 cells stably expressing dog iRhom2 full length wild type C-terminally tagged with 3 consecutive copies of the T7 epitope or pMSCV-rabbit-iR2-FL-WT-T7 cells stably expressing rabbit iRhom2 full length wild type C-terminally tagged with 3 consecutive copies of the T7 epitope, respectively. Upon propagation, cells were stocked for future usage. In parallel, iRhom1/2−/− DKO MEFs stably expressing a tagged form of rhesus monkey, cynomolgus monkey, dog or rabbit iRhom1 were generated in an analogous manner. […]

| binding to rhesus monkey iRhom1 on MEF-DKO-Rhesus-iR1-FL-WT-T7 cells | Molecule |
| --- | --- |
| do not recognize rhesus monkey iRhom1 | B1 |
| do not recognize rhesus monkey iRhom1 | B2 |
| do not recognize rhesus monkey iRhom1 | B3 |
| no significant binding | B4 |
| do not recognize rhesus monkey iRhom1 | B5 |
| do not recognize rhesus monkey iRhom1 | B6 |

tested on: rabbit iRhom2; test: FACS cross-reactivity on MEF-DKO-Rabbit-iR2-FL-WT-T7 cells; assay type: binding; conditions: antibody at 3 μg/ml
From the text: as §1, §2

| Molecule | binding to rabbit iRhom2 on MEF-DKO-Rabbit-iR2-FL-WT-T7 cells |
| --- | --- |
| B1 | recognize rabbit iRhom2 |
| B2 | recognize rabbit iRhom2 |
| B3 | recognize rabbit iRhom2 |
| B4 | Strong binding |
| B5 | recognize rabbit iRhom2 |
| B6 | recognize rabbit iRhom2 |

tested on: cynomolgus monkey iRhom1; test: FACS binding on MEF-DKO-Cyno-iR1-FL-WT-T7 cells; conditions: antibody at 3 μg/ml
From the text: as §1, §2

| Molecule | binding to cynomolgus monkey iRhom1 on MEF-DKO-Cyno-iR1-FL-WT-T7 cells |
| --- | --- |
| B1 | do not recognize cynomolgus monkey iRhom1 |
| B2 | do not recognize cynomolgus monkey iRhom1 |
| B3 | do not recognize cynomolgus monkey iRhom1 |
| B4 | no significant binding |
| B5 | do not recognize cynomolgus monkey iRhom1 |
| B6 | do not recognize cynomolgus monkey iRhom1 |

tested on: rabbit iRhom1; test: FACS binding on MEF-DKO-Rabbit-iR1-FL-WT-T7 cells; conditions: antibody at 3 μg/ml
From the text: as §1, §2

| Molecule | binding to rabbit iRhom1 on MEF-DKO-Rabbit-iR1-FL-WT-T7 cells |
| --- | --- |
| B1 | do not recognize rabbit iRhom1 |
| B2 | do not recognize rabbit iRhom1 |
| B3 | do not recognize rabbit iRhom1 |
| B4 | no significant binding |
| B5 | do not recognize rabbit iRhom1 |
| B6 | do not recognize rabbit iRhom1 |
